According to publication PMC5609902 (2017):

B1: JRFL rgp120 (natural protein)
chain: not shown

Tests used:
Experiment in all cases: SPR
[1] = target: B1
[2] = target: CN54 rgp120 (HIV-1 CN54 (CRF07_BC))
[3] = target: VRC01
[4] = target: b12

| Binder | koff [1] | koff [2] | Kd [3] | koff [3] | Kd [4] | koff [4] |
| --- | --- | --- | --- | --- | --- | --- |
| Y498 IgG1 (antibody, V domains shown) VH: KVQLVQSGTELKKPGASGKVSCKASGYTFNSNGLNWVRQAPGQGLEWVGWISGHSDETKHAQNFQGRLTLTTDTSTNTAYMELRSLRSDDTAVYYCARSLLRSLERLMGGTDAFDIWGQGTLVTVSS VL: not shown | 0.000105 s⁻¹ | 2.3e-05 s⁻¹ | – | – | – | – |
| B1 | – | – | 5.35 nM | 0.000167 s⁻¹ | 1.11 nM | 0.000567 s⁻¹ |
